This passage reports Kd results from paper PMC6547453 (2019).

One assay concerns the target T1, EsCas13d ([Eubacterium] siraeum DSM 15702).
T1 chain: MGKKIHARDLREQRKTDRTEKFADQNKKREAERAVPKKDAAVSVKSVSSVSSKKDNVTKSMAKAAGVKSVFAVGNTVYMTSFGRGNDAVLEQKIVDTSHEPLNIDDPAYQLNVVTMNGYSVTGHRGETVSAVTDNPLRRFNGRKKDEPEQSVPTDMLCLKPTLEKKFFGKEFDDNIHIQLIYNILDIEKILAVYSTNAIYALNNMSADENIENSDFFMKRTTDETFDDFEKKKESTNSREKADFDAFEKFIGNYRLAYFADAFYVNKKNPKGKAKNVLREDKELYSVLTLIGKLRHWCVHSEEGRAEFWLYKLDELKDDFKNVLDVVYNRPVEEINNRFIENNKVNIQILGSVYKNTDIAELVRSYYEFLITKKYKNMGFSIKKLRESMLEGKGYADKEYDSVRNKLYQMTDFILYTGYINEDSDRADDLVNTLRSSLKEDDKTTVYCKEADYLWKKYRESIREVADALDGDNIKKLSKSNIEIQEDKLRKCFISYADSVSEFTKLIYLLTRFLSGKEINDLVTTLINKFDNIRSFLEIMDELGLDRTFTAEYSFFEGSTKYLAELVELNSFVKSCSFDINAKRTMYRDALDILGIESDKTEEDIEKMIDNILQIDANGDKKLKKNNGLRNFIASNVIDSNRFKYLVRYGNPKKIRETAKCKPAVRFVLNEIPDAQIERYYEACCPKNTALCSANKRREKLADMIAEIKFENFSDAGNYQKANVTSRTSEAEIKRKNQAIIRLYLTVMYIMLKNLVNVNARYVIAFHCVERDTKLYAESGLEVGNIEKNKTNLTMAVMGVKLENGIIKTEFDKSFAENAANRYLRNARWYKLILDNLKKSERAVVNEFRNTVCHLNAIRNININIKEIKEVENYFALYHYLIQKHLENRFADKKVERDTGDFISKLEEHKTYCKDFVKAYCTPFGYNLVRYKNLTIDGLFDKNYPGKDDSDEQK
The assay is described as follows: ITC. In general terms: Isothermal titration calorimetry measures the heat released or taken up as one component is titrated into another.

A further assay deals with RspCas13d (Ruminococcus sp. (from the prefix Rsp, …)). The assay can be described thus: ITC.

B1: full-length RspWYL1 (Ruminococcus sp. WYL1, amino acids 1–392) (natural protein)
chain: MLIPPSTFLPKRDKNVPYIAEVQSIPLSPSAYSVIIKDKSIFETSLSPNGSVSMSSFLTSIFDSAYIASLKYKSDDNYKYIGIPLLNAFVEWQIEEIDDSLDDKSKEIIKSYLISKLSAKYEKTKTENAVRVRLSICRDLYDTLSSDDLYYENKVYSLTLRRFLKAVYEDYALLSDCERERLIFADNIIKINEVIKQNGSRYYSFIYAYSNMYSREKRRIRLIPYRIVSDEYKMYNYLVCLSDEKSAGKEFKADSYRISRLSGLSIAEKLSQKEYSSVTEYERLKEGHVKSVKHLLSDPRFGSDESDISKVYLTEKGVEMFRKILYQRPILKGNEKPKPNTVNEFISPPIQVKYYFNKFGKDGVILSPSDSFEEMRTLYVEGADAYNREVEM
modifications: apo (no crRNA); full length assumed, since limits are not given; 954 aa matches the known EsCas13d length
Regarding B1, the equilibrium dissociation constant (Kd) (commonly the free concentration of one partner at which half of the binding sites on the other are occupied at equilibrium, for simple one-to-one binding) in the assay with EsCas13d is about 270 µM.

B2: full-length RspWYL1 (Ruminococcus sp. WYL1, amino acids 1–392) (natural protein)
chain: MLIPPSTFLPKRDKNVPYIAEVQSIPLSPSAYSVIIKDKSIFETSLSPNGSVSMSSFLTSIFDSAYIASLKYKSDDNYKYIGIPLLNAFVEWQIEEIDDSLDDKSKEIIKSYLISKLSAKYEKTKTENAVRVRLSICRDLYDTLSSDDLYYENKVYSLTLRRFLKAVYEDYALLSDCERERLIFADNIIKINEVIKQNGSRYYSFIYAYSNMYSREKRRIRLIPYRIVSDEYKMYNYLVCLSDEKSAGKEFKADSYRISRLSGLSIAEKLSQKEYSSVTEYERLKEGHVKSVKHLLSDPRFGSDESDISKVYLTEKGVEMFRKILYQRPILKGNEKPKPNTVNEFISPPIQVKYYFNKFGKDGVILSPSDSFEEMRTLYVEGADAYNREVEM
On to B2, for which, in the assay with RspCas13d, the dissociation constant Kd was about 250 µM.
